In IntAct's records for PubMed 31515488:

B1: Origin recognition complex subunit 6 (Homo sapiens), Q9Y5N6 (parent)
chain: MGSELIGRLAPRLGLAEPDMLRKAEEYLRLSRVKCVGLSARTTETSSAVMCLDLAASWMKCPLDRAYLIKLSGLNKETYQSCLKSFECLLGLNSNIGIRDLAVQFSCIEAVNMASKILKSYESSLPQTQQVDLDLSRPLFTSAALLSACKILKLKVDKNKMVATSGVKKAIFDRLCKQLEKIGQQVDREPGDVATPPRKRKKIVVEAPAKEMEKVEEMPHKPQKDEDLTQDYEEWKRKILENAASAQKATAE
partner: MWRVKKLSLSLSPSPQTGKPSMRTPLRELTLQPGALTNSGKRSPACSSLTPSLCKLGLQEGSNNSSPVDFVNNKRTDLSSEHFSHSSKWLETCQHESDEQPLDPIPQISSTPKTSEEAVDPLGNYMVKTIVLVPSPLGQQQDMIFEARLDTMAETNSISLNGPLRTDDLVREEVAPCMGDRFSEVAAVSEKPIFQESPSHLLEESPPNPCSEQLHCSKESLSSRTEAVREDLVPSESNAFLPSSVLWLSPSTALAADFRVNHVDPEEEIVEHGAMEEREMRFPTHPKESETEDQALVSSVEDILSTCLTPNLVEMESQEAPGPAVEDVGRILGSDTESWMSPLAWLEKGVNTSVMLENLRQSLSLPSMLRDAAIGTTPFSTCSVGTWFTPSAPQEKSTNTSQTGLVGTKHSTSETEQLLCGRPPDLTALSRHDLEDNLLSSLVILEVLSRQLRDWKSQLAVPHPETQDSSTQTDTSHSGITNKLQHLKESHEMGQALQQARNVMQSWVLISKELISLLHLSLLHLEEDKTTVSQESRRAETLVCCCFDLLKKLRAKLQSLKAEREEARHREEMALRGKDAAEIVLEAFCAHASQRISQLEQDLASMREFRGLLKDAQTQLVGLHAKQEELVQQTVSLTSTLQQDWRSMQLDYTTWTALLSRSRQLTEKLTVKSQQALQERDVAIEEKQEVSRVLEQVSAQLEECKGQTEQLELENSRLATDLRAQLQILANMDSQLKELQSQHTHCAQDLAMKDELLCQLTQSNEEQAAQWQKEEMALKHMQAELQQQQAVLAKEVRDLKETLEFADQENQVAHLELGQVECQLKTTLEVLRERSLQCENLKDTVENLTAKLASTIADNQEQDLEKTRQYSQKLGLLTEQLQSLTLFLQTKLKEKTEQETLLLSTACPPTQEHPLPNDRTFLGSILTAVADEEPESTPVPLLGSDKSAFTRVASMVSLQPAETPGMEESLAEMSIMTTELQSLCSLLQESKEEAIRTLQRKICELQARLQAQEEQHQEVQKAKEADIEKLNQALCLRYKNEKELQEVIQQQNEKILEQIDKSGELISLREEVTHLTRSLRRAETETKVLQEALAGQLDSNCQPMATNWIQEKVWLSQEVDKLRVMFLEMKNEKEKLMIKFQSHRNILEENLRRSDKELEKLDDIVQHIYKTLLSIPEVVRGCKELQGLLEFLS
B2: F-box only protein 11 (Homo sapiens), Q86XK2 (parent)
chain: MNSVRAANRRPRRVSRPRPVQQQQQQPPQQPPPQPPQQQPPQQQPPPPPQQQQQQQPPPPPPPPPPLPQERNNVGERDDDVPADMVAEESGPGAQNSPYQLRRKTLLPKRTACPTKNSMEGASTSTTENFGHRAKRARVSGKSQDLSAAPAEQYLQEKLPDEVVLKIFSYLLEQDLCRAACVCKRFSELANDPILWKRLYMEVFEYTRPMMHPEPGKFYQINPEEYEHPNPWKESFQQLYKGAHVKPGFAEHFYSNPARYKGRENMLYYDTIEDALGGVQEAHFDGLIFVHSGIYTDEWIYIESPITMIGAAPGKVADKVIIENTRDSTFVFMEGSEDAYVGYMTIRFNPDDKSAQHHNAHHCLEITVNCSPIIDHCIIRSTCTVGSAVCVSGQGACPTIKHCNISDCENVGLYITDHAQGIYEDNEISNNALAGIWVKNHGNPIIRRNHIHHGRDVGVFTFDHGMGYFESCNIHRNRIAGFEVKAYANPTVVRCEIHHGQTGGIYVHEKGRGQFIENKIYANNFAGVWITSNSDPTIRGNSIFNGNQGGVYIFGDGRGLIEGNDIYGNALAGIQIRTNSCPIVRHNKIHDGQHGGIYVHEKGQGVIEENEVYSNTLAGVWVTTGSTPVLRRNRIHSGKQVGVYFYDNGHGVLEDNDIYNHMYSGVQIRTGSNPKIRRNKIWGGQNGGILVYNSGLGCIEDNEIFDNAMAGVWIKTDSNPTLRRNKIHDGRDGGICIFNGGRGLLEENDIFRNAQAGVLISTNSHPILRKNRIFDGFAAGIEITNHATATLEGNQIFNNRFGGLFLASGVNVTMKDNKIMNNQDAIEKAVSRGQCLYKISSYTSYPMHDFYRCHTCNTTDRNAICVNCIKKCHQGHDVEFIRHDRFFCDCGAGTLSNPCTLAGEPTHDTDTLYDSAPPIESNTLQHN
B3: LHFPL tetraspan subfamily member 5 protein (Homo sapiens), Q8TAF8 (parent)
chain: MVKLLPAQEAAKIYHTNYVRNSRAVGVMWGTLTICFSVLVMALFIQPYWIGDSVNTPQAGYFGLFSYCVGNVLSSELICKGGPLDFSSIPSRAFKTAMFFVALGMFLIIGSIICFSLFFICNTATVYKICAWMQLAAATGLMIGCLVYPDGWDSSEVRRMCGEQTGKYTLGHCTIRWAFMLAILSIGDALILSFLAFVLGYRQDKLLPDDYKADGTEEV
partner: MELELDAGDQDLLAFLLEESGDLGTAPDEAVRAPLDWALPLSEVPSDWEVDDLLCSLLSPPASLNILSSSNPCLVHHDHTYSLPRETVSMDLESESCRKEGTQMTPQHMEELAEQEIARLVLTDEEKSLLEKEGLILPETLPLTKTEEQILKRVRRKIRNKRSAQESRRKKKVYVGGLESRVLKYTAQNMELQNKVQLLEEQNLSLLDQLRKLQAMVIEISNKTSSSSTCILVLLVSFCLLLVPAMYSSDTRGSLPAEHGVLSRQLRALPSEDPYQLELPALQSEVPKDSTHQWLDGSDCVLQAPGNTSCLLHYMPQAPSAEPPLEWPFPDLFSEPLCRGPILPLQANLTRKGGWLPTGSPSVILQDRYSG
B4: Protein FAM167A (Homo sapiens), Q96KS9 (parent)
chain: MSVPQIHVEEVGAEEGAGAAAPPDDHLRSLKALTEKLRLETRRPSYLEWQARLEEHTWPFPRPAAEPQASLEEGERGGQEPLLPLREAGQHPPSARSASQGARPLSTGKLEGFQSIDEAIAWLRKELTEMRLQDQQLARQLMRLRGDINKLKIEHTCRLHRRMLNDATYELEERDELADLFCDSPLASSFSLSTPLKLIGVTKMNINSRRFSLC
partner: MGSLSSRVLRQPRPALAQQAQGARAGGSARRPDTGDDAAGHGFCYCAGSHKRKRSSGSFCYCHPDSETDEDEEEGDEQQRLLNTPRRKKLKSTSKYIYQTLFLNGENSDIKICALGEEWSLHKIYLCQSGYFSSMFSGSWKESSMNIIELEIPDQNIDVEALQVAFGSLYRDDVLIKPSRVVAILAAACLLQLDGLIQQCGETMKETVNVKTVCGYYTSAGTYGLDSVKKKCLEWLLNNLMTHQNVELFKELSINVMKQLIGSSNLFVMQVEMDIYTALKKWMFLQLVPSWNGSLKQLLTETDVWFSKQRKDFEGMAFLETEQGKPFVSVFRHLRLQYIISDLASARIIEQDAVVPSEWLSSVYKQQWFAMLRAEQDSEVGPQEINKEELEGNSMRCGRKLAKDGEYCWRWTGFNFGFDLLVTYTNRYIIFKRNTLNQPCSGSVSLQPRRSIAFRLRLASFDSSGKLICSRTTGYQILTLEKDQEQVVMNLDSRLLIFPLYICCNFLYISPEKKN
B5: Putative RNA-binding protein Luc7-like 2 (Homo sapiens), Q9Y383 (parent)
chain: MSAQAQMRAMLDQLMGTSRDGDTTRQRIKFSDDRVCKSHLLNCCPHDVLSGTRMDLGECLKVHDLALRADYEIASKEQDFFFELDAMDHLQSFIADCDRRTEVAKKRLAETQEEISAEVAAKAERVHELNEEIGKLLAKVEQLGAEGNVEESQKVMDEVEKARAKKREAEEVYRNSMPASSFQQQKLRVCEVCSAYLGLHDNDRRLADHFGGKLHLGFIEIREKLEELKRVVAEKQEKRNQERLKRREEREREEREKLRRSRSHSKNPKRSRSREHRRHRSRSMSRERKRRTRSKSREKRHRHRSRSSSRSRSRSHQRSRHSSRDRSRERSKRRSSKERFRDQDLASCDRDRSSRDRSPRDRDRKDKKRSYESANGRSEDRRSSEEREAGEI
B6: Septin-12 (Homo sapiens), Q8IYM1 (parent)
chain: MDPLRRSPSPCLSSQPSSPSTPPCEMLGPVGIEAVLDQLKIKAMKMGFEFNIMVVGQSGLGKSTMVNTLFKSKVWKSNPPGLGVPTPQTLQLHSLTHVIEEKGVKLKLTVTDTPGFGDQINNDNCWDPILGYINEQYEQYLQEEILITRQRHIPDTRVHCCVYFVPPTGHCLRPLDIEFLQRLCRTVNVVPVIARADSLTMEEREAFRRRIQQNLRTHCIDVYPQMCFDEDINDKILNSKLRDRIPFAVVGADQEHLVNGRCVLGRKTKWGIIEVENMAHCEFPLLRDLLIRSHLQDLKDITHNIHYENYRVIRLNESHLLPRGPGWVNLAPASPGQLTTPRTFKVCRGAHDDSDDEF
partner: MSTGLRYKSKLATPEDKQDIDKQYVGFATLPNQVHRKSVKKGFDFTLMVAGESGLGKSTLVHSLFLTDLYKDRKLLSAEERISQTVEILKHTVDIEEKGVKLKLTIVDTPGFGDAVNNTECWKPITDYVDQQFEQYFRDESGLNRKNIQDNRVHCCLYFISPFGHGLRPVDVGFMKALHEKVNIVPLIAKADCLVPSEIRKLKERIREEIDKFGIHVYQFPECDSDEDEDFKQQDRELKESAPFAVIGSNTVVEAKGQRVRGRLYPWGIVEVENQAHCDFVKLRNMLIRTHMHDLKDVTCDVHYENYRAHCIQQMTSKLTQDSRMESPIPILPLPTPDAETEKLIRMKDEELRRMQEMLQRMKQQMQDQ
B7: Peroxisomal bifunctional enzyme (Homo sapiens), Q08426 (parent)
chain: MAEYTRLHNALALIRLRNPPVNAISTTLLRDIKEGLQKAVIDHTIKAIVICGAEGKFSAGADIRGFSAPRTFGLTLGHVVDEIQRNEKPVVAAIQGMAFGGGLELALGCHYRIAHAEAQVGLPEVTLGLLPGARGTQLLPRLTGVPAALDLITSGRRILADEALKLGILDKVVNSDPVEEAIRFAQRVSDQPLESRRLCNKPIQSLPNMDSIFSEALLKMRRQHPGCLAQEACVRAVQAAVQYPYEVGIKKEEELFLYLLQSGQARALQYAFFAERKANKWSTPSGASWKTASARPVSSVGVVGLGTMGRGIVISFARARIPVIAVDSDKNQLATANKMITSVLEKEASKMQQSGHPWSGPKPRLTSSVKELGGVDLVIEAVFEEMSLKKQVFAELSAVCKPEAFLCTNTSALDVDEIASSTDRPHLVIGTHFFSPAHVMKLLEVIPSQYSSPTTIATVMNLSKKIKKIGVVVGNCFGFVGNRMLNPYYNQAYFLLEEGSKPEEVDQVLEEFGFKMGPFRVSDLAGLDVGWKSRKGQGLTGPTLLPGTPARKRGNRRYCPIPDVLCELGRFGQKTGKGWYQYDKPLGRIHKPDPWLSKFLSRYRKTHHIEPRTISQDEILERCLYSLINEAFRILGEGIAASPEHIDVVYLHGYGWPRHKGGPMFYASTVGLPTVLEKLQKYYRQNPDIPQLEPSDYLKKLASQGNPPLKEWQSLAGSPSSKL
partner: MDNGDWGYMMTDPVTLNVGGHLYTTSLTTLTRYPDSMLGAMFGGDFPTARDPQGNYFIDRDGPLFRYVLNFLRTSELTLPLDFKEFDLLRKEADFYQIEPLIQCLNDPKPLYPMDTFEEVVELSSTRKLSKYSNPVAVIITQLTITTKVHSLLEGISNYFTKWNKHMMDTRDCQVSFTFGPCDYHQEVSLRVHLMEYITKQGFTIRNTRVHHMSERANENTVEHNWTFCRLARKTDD

Variants of: B1
Conditions: with spag5_human SPAG5, Q96R06
K201N was tested, and the “effect of a mutation on the interaction” value was “with no effect”.

Variants of: B2
Conditions: with skp1_human SKP1, P63208
Chain of skp1_human SKP1, P63208 (P63208 whole entry): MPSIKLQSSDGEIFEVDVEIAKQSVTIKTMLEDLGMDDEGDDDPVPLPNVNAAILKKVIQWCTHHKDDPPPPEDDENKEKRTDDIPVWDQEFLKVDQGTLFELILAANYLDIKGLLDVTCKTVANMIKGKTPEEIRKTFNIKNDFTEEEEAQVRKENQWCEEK
I306V was tested, and the “effect of a mutation on the interaction” value was “with no effect”.
In the case of Y226C, the “effect of a mutation on the interaction” value is reported as “with no effect”.

Variants of: B3
Conditions: with creb3_human CREB3, O43889
For K205N, the “effect of a mutation on the interaction” value was “with no effect”.

Variants of: B4
Conditions: with gmcl1_human GMCL1, Q96IK5
In the case of S99T, the “effect of a mutation on the interaction” value is reported as “with no effect”.

Variants of: B5
Conditions: with nfya_human NFYA
For K368Q, the “effect of a mutation on the interaction” value was “with no effect”.

Variants of: B5
Conditions: with srsf6_human SRSF6, Q13247
Chain of srsf6_human SRSF6, Q13247 (Q13247 whole entry, looked up): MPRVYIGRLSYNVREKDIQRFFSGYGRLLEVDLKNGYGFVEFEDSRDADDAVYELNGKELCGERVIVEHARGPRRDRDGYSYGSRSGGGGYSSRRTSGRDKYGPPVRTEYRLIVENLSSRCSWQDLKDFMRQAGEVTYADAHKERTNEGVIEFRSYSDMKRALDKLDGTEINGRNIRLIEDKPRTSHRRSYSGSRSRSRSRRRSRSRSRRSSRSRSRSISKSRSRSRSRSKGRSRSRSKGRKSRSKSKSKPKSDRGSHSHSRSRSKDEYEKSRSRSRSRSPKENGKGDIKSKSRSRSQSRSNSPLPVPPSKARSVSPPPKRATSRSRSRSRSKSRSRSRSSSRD
In the case of K368Q, the “effect of a mutation on the interaction” value is reported as “with no effect”.

Variants of: B6
Conditions: with sept5_human SEPTIN5, Q99719
For K73N, the “effect of a mutation on the interaction” value was “with no effect”.
In the case of Q213R, the “effect of a mutation on the interaction” value is reported as “disrupting interaction strength”.
With R311C the “effect of a mutation on the interaction” value was “with no effect”.
With V263D the “effect of a mutation on the interaction” value was “disrupting interaction strength”.

Variants of: B7
Conditions: with kctd6_human KCTD6, Q8NC69
For I646T, the “effect of a mutation on the interaction” value was “disrupting interaction strength”.
